From patent US20150064134A1
Numbering of substitutions follows the chain as printed.

Tests used:
Experiment in all cases: cell-based or functional assay
[1] = molecular target: mTOR/FKBP12(h) (human) (UniProt P42345)
[2] = molecular target: HIPK1(h) (human) (UniProt Q86Z02)
[3] = molecular target: T1, Rse(h) (human) (UniProt Q06418)
T1 sequence (looked up): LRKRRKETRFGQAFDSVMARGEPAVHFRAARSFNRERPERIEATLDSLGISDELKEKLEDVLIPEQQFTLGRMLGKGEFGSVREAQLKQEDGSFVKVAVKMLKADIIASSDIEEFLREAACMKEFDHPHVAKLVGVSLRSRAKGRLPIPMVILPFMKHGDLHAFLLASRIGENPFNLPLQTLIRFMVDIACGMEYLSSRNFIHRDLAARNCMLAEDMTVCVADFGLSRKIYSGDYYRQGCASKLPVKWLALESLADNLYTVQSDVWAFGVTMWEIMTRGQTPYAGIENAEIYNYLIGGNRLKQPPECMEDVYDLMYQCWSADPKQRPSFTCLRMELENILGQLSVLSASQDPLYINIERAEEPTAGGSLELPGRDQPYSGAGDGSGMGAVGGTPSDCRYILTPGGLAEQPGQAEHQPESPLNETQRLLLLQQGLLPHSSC

[4] = molecular target: T2, MST2(h) (human) (UniProt Q13188)
T2 sequence (looked up): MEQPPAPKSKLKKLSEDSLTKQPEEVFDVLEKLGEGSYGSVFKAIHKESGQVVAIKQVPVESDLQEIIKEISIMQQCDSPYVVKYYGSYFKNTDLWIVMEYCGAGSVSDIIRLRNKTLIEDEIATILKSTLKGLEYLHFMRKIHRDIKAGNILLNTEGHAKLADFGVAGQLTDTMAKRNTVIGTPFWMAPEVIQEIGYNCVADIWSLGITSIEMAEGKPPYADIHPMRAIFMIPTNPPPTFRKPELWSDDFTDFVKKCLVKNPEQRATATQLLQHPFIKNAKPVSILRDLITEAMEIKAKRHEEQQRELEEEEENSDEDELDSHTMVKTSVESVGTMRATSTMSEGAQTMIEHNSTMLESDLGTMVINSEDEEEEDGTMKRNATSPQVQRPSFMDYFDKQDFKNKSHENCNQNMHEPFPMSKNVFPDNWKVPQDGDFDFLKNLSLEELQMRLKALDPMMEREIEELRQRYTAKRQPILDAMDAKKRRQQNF

[5] = molecular target: FGFR4(h) (human) (UniProt P22455)
[6] = molecular target: Rsk4(h) (human) (UniProt Q9UK32)
[7] = molecular target: T3, TSSK1(h) (human) (UniProt Q9BXA7)
T3 sequence (looked up): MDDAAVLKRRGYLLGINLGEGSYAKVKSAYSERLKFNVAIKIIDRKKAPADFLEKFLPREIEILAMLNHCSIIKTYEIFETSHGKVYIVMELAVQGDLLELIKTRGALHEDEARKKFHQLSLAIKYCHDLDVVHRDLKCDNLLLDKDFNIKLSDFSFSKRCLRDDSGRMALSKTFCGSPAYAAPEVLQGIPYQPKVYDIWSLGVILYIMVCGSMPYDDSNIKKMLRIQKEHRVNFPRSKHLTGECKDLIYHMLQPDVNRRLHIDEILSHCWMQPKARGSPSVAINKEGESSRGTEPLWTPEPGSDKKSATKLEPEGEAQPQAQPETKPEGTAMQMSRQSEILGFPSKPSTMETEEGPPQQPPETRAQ

[8] = molecular target: T4, Ret(V804M)(h) (human) (UniProt P07949)
T4 sequence (looked up): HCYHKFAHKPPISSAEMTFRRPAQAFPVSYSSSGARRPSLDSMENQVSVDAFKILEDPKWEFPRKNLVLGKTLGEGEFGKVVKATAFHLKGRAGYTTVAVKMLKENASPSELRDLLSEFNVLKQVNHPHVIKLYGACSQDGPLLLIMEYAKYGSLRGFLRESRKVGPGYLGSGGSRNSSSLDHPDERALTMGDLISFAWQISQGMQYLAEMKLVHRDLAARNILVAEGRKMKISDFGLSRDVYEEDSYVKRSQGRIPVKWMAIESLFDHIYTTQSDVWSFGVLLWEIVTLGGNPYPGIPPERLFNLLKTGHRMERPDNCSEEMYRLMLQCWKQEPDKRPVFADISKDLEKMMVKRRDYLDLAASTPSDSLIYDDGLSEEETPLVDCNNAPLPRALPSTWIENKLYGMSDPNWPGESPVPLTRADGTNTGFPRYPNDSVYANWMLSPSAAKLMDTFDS

[9] = molecular target: T5, Ret(V804L)(h) (human) (UniProt P07949)
T5 sequence (looked up): T4 sequence (looked up) with M147L

[10] = molecular target: MSK2(h) (human) (UniProt O75676)
[11] = molecular target: CaMKIδ(h) (human) (UniProt Q8IU85)

Rsk4(h) (human), sequence (Q9UK32 whole entry): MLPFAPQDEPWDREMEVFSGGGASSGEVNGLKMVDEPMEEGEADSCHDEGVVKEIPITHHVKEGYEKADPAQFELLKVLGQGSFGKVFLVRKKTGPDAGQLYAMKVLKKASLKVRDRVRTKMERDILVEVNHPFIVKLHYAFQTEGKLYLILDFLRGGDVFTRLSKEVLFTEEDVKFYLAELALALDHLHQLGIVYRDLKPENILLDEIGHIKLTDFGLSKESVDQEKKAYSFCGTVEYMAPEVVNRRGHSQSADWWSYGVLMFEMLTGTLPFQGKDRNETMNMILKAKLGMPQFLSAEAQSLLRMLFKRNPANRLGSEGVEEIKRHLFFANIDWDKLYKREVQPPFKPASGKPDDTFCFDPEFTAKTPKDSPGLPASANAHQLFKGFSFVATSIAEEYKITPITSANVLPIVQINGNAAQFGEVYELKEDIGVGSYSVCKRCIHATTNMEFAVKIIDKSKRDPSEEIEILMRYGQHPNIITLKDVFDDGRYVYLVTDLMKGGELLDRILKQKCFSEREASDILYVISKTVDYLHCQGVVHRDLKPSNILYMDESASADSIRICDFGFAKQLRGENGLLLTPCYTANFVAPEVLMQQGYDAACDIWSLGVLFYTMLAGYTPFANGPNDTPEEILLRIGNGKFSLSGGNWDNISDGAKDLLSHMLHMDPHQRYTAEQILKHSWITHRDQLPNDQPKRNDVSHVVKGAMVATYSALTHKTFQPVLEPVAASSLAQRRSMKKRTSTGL
FGFR4(h) (human), sequence (P22455 442-753 limits assumed): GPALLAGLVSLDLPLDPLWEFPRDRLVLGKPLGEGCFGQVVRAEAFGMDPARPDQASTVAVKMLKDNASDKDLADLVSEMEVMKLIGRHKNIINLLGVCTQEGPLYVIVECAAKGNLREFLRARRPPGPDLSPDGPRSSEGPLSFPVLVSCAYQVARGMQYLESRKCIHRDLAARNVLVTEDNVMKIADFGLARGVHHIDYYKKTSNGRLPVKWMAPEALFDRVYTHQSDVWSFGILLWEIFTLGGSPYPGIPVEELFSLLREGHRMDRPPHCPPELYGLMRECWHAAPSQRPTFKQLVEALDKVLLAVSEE
mTOR/FKBP12(h) (human), sequence (P42345 1362-2549 limits assumed, chain 1 of 2): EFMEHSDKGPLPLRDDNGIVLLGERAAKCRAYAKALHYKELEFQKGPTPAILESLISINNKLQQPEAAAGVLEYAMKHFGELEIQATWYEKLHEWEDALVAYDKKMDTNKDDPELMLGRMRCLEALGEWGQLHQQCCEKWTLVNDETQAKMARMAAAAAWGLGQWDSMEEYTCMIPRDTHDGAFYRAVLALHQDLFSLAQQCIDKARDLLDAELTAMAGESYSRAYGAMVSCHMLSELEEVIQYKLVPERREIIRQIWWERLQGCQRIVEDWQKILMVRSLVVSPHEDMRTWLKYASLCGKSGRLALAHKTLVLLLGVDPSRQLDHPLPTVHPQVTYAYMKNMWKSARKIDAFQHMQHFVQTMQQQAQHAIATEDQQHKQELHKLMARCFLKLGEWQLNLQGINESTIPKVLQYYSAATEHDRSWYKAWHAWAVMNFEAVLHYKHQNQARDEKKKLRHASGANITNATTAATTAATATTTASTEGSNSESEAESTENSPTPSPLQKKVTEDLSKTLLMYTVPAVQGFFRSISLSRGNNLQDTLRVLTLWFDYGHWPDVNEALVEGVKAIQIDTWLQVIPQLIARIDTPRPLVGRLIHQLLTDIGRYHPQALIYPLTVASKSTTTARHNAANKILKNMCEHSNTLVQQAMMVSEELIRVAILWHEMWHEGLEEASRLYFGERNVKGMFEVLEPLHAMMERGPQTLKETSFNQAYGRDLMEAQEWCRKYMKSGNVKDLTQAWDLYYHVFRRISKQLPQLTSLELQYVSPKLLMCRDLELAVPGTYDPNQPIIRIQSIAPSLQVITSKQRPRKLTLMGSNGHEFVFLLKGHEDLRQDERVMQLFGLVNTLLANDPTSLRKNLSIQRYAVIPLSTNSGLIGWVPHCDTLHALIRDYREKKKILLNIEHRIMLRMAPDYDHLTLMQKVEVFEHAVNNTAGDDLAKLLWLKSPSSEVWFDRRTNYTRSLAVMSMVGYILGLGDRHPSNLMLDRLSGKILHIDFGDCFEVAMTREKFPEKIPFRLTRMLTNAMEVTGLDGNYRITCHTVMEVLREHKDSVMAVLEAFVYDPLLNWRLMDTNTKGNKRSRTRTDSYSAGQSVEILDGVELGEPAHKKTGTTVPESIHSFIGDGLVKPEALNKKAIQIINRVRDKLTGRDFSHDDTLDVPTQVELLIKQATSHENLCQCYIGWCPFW
mTOR/FKBP12(h) (human), sequence (P62942 whole entry, chain 2 of 2, further chain): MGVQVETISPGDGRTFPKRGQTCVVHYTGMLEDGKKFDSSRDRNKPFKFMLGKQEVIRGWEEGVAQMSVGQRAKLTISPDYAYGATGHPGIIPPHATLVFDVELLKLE

Row | % activity at 100 µM [1] [%] | % activity at 100 µM [2] [%] | % activity at 100 µM [3] [%] | % activity at 100 µM [4] [%] | % activity at 100 µM [5] [%] | % activity at 100 µM [6] [%] | % activity at 100 µM [7] [%] | % activity at 100 µM [8] [%] | % activity at 100 µM [9] [%] | % activity at 100 µM [10] [%] | % activity at 100 µM [11] [%] | Substance
1 | 145 | 74 | 88 | 19 | 28 | 90 | 79 | 95 | 79 | 56 | 10 | MMI-0300 (peptide)
2 | 125 | 91 | 89 | 11 | 19 | 91 | 79 | 87 | 73 | 52 | 17 | MMI-0400 (peptide)
3 | 140 | 47 | 63 | 2 | 3 | 29 | 46 | 36 | 20 | 14 | 0 | MMI-0500 (peptide)
